These results are taken from the Human Domainome abundance scans (Beltran et al. 2025).

± gives the uncertainty stated by the source.

The chains are these.
B1: Double-stranded RNA-binding protein Staufen homolog 1, residues 183 to 249; numbered along this chain, O95793 (parent)
chain: KSEISQVFEIALKRNLPVNFEVARESGPPHMKNFVTKVSVGEFVGEGEGKSKKISKKNAAIAVLEEL

The variants in this data set derive from B1. In words: abundance fitness (aPCA) (normalised: wild type 0, dead -1); higher = more abundant; growth selection in yeast, the domain comes from the species named. To be noted: Homo sapiens.
Take DSEISQVFEIALKRNLPVNFEVARESGPPHMKNFVTKVSVGEFVGEGEGKSKKISKKNAAIAVLEEL [K1D]: the abundance fitness is -0.235 ± 0.095.
For ESEISQVFEIALKRNLPVNFEVARESGPPHMKNFVTKVSVGEFVGEGEGKSKKISKKNAAIAVLEEL [K1E], the abundance fitness was -0.263 ± 0.081.
GSEISQVFEIALKRNLPVNFEVARESGPPHMKNFVTKVSVGEFVGEGEGKSKKISKKNAAIAVLEEL [K1G]: the abundance fitness was -0.175 ± 0.044.
Next, LSEISQVFEIALKRNLPVNFEVARESGPPHMKNFVTKVSVGEFVGEGEGKSKKISKKNAAIAVLEEL [K1L]: -0.3 ± 0.052.
For KSERSQVFEIALKRNLPVNFEVARESGPPHMKNFVTKVSVGEFVGEGEGKSKKISKKNAAIAVLEEL [I4R], the abundance fitness is -0.7 ± 0.042.
Turning to KSEASQVFEIALKRNLPVNFEVARESGPPHMKNFVTKVSVGEFVGEGEGKSKKISKKNAAIAVLEEL [I4A], the abundance fitness is -0.705 ± 0.064.
Next, KSEKSQVFEIALKRNLPVNFEVARESGPPHMKNFVTKVSVGEFVGEGEGKSKKISKKNAAIAVLEEL [I4K]: -0.516 ± 0.062.
KSESSQVFEIALKRNLPVNFEVARESGPPHMKNFVTKVSVGEFVGEGEGKSKKISKKNAAIAVLEEL [I4S]: the abundance fitness was -0.461 ± 0.056.
Next, KSEESQVFEIALKRNLPVNFEVARESGPPHMKNFVTKVSVGEFVGEGEGKSKKISKKNAAIAVLEEL [I4E]: -0.44 ± 0.062.
For KSECSQVFEIALKRNLPVNFEVARESGPPHMKNFVTKVSVGEFVGEGEGKSKKISKKNAAIAVLEEL [I4C], the abundance fitness was -0.417 ± 0.084.
As to KSEWSQVFEIALKRNLPVNFEVARESGPPHMKNFVTKVSVGEFVGEGEGKSKKISKKNAAIAVLEEL [I4W], the abundance fitness is -0.359 ± 0.051.
As for KSEQSQVFEIALKRNLPVNFEVARESGPPHMKNFVTKVSVGEFVGEGEGKSKKISKKNAAIAVLEEL [I4Q], the abundance fitness was -0.661 ± 0.073.
KSENSQVFEIALKRNLPVNFEVARESGPPHMKNFVTKVSVGEFVGEGEGKSKKISKKNAAIAVLEEL [I4N]: the abundance fitness is -0.56 ± 0.094.
The result for KSEMSQVFEIALKRNLPVNFEVARESGPPHMKNFVTKVSVGEFVGEGEGKSKKISKKNAAIAVLEEL [I4M] reads -0.292 ± 0.054.
For KSEGSQVFEIALKRNLPVNFEVARESGPPHMKNFVTKVSVGEFVGEGEGKSKKISKKNAAIAVLEEL [I4G], the abundance fitness is -0.735 ± 0.056.
Next, KSEVSQVFEIALKRNLPVNFEVARESGPPHMKNFVTKVSVGEFVGEGEGKSKKISKKNAAIAVLEEL [I4V]: -0.059 ± 0.037; KSEYSQVFEIALKRNLPVNFEVARESGPPHMKNFVTKVSVGEFVGEGEGKSKKISKKNAAIAVLEEL [I4Y]: -0.74 ± 0.092; KSEDSQVFEIALKRNLPVNFEVARESGPPHMKNFVTKVSVGEFVGEGEGKSKKISKKNAAIAVLEEL [I4D]: -0.388 ± 0.077.
On to KSEHSQVFEIALKRNLPVNFEVARESGPPHMKNFVTKVSVGEFVGEGEGKSKKISKKNAAIAVLEEL [I4H], for which the abundance fitness is -0.447 ± 0.067.
Next, KSEFSQVFEIALKRNLPVNFEVARESGPPHMKNFVTKVSVGEFVGEGEGKSKKISKKNAAIAVLEEL [I4F]: -0.534 ± 0.07; KSETSQVFEIALKRNLPVNFEVARESGPPHMKNFVTKVSVGEFVGEGEGKSKKISKKNAAIAVLEEL [I4T]: -0.391 ± 0.062.
On to KSMISQVFEIALKRNLPVNFEVARESGPPHMKNFVTKVSVGEFVGEGEGKSKKISKKNAAIAVLEEL [E3M], for which the abundance fitness is -0.509 ± 0.055.
KSTISQVFEIALKRNLPVNFEVARESGPPHMKNFVTKVSVGEFVGEGEGKSKKISKKNAAIAVLEEL [E3T]: the abundance fitness was -0.236 ± 0.056.
The result for KSWISQVFEIALKRNLPVNFEVARESGPPHMKNFVTKVSVGEFVGEGEGKSKKISKKNAAIAVLEEL [E3W] reads -0.309 ± 0.082.
As for KSPISQVFEIALKRNLPVNFEVARESGPPHMKNFVTKVSVGEFVGEGEGKSKKISKKNAAIAVLEEL [E3P], the abundance fitness was -0.023 ± 0.07.
Take KSKISQVFEIALKRNLPVNFEVARESGPPHMKNFVTKVSVGEFVGEGEGKSKKISKKNAAIAVLEEL [E3K]: the abundance fitness was -0.194 ± 0.072.
Next, KSGISQVFEIALKRNLPVNFEVARESGPPHMKNFVTKVSVGEFVGEGEGKSKKISKKNAAIAVLEEL [E3G]: -0.551 ± 0.04; KSHISQVFEIALKRNLPVNFEVARESGPPHMKNFVTKVSVGEFVGEGEGKSKKISKKNAAIAVLEEL [E3H]: -0.219 ± 0.072.
The result for KSNISQVFEIALKRNLPVNFEVARESGPPHMKNFVTKVSVGEFVGEGEGKSKKISKKNAAIAVLEEL [E3N] reads -0.396 ± 0.086; that for KSAISQVFEIALKRNLPVNFEVARESGPPHMKNFVTKVSVGEFVGEGEGKSKKISKKNAAIAVLEEL [E3A], -0.049 ± 0.041; that for KSDISQVFEIALKRNLPVNFEVARESGPPHMKNFVTKVSVGEFVGEGEGKSKKISKKNAAIAVLEEL [E3D], -0.286 ± 0.059.
KSCISQVFEIALKRNLPVNFEVARESGPPHMKNFVTKVSVGEFVGEGEGKSKKISKKNAAIAVLEEL [E3C]: the abundance fitness was -0.205 ± 0.064.
Take KSYISQVFEIALKRNLPVNFEVARESGPPHMKNFVTKVSVGEFVGEGEGKSKKISKKNAAIAVLEEL [E3Y]: the abundance fitness was -0.098 ± 0.079.
Turning to KSFISQVFEIALKRNLPVNFEVARESGPPHMKNFVTKVSVGEFVGEGEGKSKKISKKNAAIAVLEEL [E3F], the abundance fitness is -0.177 ± 0.07.
Next, KSQISQVFEIALKRNLPVNFEVARESGPPHMKNFVTKVSVGEFVGEGEGKSKKISKKNAAIAVLEEL [E3Q]: -0.247 ± 0.062.
Next, KSSISQVFEIALKRNLPVNFEVARESGPPHMKNFVTKVSVGEFVGEGEGKSKKISKKNAAIAVLEEL [E3S]: -0.208 ± 0.045; KSLISQVFEIALKRNLPVNFEVARESGPPHMKNFVTKVSVGEFVGEGEGKSKKISKKNAAIAVLEEL [E3L]: -0.231 ± 0.043.
Consider KSRISQVFEIALKRNLPVNFEVARESGPPHMKNFVTKVSVGEFVGEGEGKSKKISKKNAAIAVLEEL [E3R], for which the abundance fitness is -0.551 ± 0.047.
Next, KSVISQVFEIALKRNLPVNFEVARESGPPHMKNFVTKVSVGEFVGEGEGKSKKISKKNAAIAVLEEL [E3V]: -0.022 ± 0.037; KSIISQVFEIALKRNLPVNFEVARESGPPHMKNFVTKVSVGEFVGEGEGKSKKISKKNAAIAVLEEL [E3I]: -0.001 ± 0.082.
